{"source": "paper PMC11101554", "about": "“Pyruvate kinase 2 from Synechocystis sp. PCC 6803 increased substrate affinity via glucose-6-phosphate and ribose-5-phosphate for phosphoenolpyruvate consumption” (Plant Molecular Biology, 2024)", "molecules": {"B1": {"name": "SyPyk2 (Synechocystis pyruvate kinase 2) (Synechocystis sp. PCC 6803 substr. Kazusa) (protein)", "chain": "MQTSPLPRRTKIVATIGPATQSKEVLRQLIQAGATTFRLNFSHGDHAYHQQSIRLIRQIAFELNQPVGILQDLQGPKIRVGKFLNDAGSVQLKNGDPYTLTSRPVECTETISSISYEYLADEVPSGARILLDDGKLEMLVEEVDTVARDLHCRVIVGGTLSSNKGVNFPGVCLSVKAMTDKDKEDLMFGLDQGVDWVALSFVRNPQDIDEIKGLIAAAGKSVPVIAKIEKHEAIKDMQAVLEKCDGVMVARGDLGVELPAEDVPILQKKLIATANRLGIPVITATQMLDSMVNSPRPTRAEVSDVANAILDGTDAVMLSNETAIGKFPVEAVAIMAKIAERIEQEDINPSQAEASRTSIPNAISSAVSQIAETLNAAAIMSLTKTGSTARHVSKFRPKTPILAVTPHVDVSRQLQLVWGVKPLLVLDLPSTSQTFQAAINVAQENHFLRDGDLVVMTAGTLQGVAGSTDLIKVEVVKAILGRGVGIGQGAVSGRARVASRPQAIAQFTQGEILVVPSTNADCVDMMRRAAGIITEEESLTSHAAIIGLRLGVPVIVGFKGATQKIRDGAIVTIDAQKGLIYSGALPPVSKG", "notes": "synthesized gene in pGEX6P-1 (BamHI-XhoI), GST fusion from E. coli BL21, GST tag cut by PreScission protease; untagged 63 kDa"}}, "key": {"[1]": {"biological_target": "T1, SyPyk2 (Synechocystis pyruvate kinase 2) (Synechocystis sp. PCC 6803, UniProt P73534)", "T1 construct": "gene pyk2; synthesized gene in pGEX6P-1 (BamHI-XhoI), GST fusion from E. coli BL21, GST tag cut by PreScission protease; untagged 63 kDa", "T1 sequence (P73534 1-591)": "B1 chain", "test": "LDH-coupled assay, NADH oxidation at […] nm", "assay_type": "biochemical"}, "[2]": {"biological_target": "T1, SyPyk2 (Synechocystis pyruvate kinase 2)", "test": "LDH-coupled assay, NADH oxidation at […] nm", "assay_type": "biochemical", "conditions": "read-out: % activity at 1 mM"}, "purified protein [3]": {"substrate": "C=C(OP(=O)(O)O)C(=O)O", "test": "purified protein", "assay_type": "biochemical, Synechocystis sp. PCC 6803", "conditions": "55 °C, pH 7.0 MES-NaOH, 2 mM ADP, 15 mM MgCl2, 100 mM KCl, no effector, sigmoidal (half-saturation, cooperative)"}, "purified protein [4]": {"substrate": "Nc1ncnc2c1ncn2[C@@H]1O[C@H](COP(=O)(O)OP(=O)(O)O)[C@@H](O)[C@H]1O", "test": "purified protein", "assay_type": "biochemical, Synechocystis sp. PCC 6803", "conditions": "55 °C, pH 7.0 MES-NaOH, 5 mM PEP, 15 mM MgCl2, 100 mM KCl, hyperbolic"}}}
{"molecule": "Nc1ncnc2c1ncn2[C@@H]1O[C@H](COP(=O)(O)OP(=O)(O)OP(=O)(O)O)[C@@H](O)[C@H]1O", "note": "[ATP, adenosine triphosphate]", "values": [{"measurement": "IC50", "setting": "[1]", "value": 4.1, "unit": "mM"}]}
{"molecule": "O=P(O)(O)OC[C@H]1OC(O)[C@H](O)[C@@H]1O", "note": "(stereo partly drawn) [R5P, ribose-5-phosphate]", "values": [{"measurement": "activity at 1000 µM", "setting": "[2]", "value": "~150", "unit": "%"}]}
{"molecule": "O=P(O)(O)OC[C@H]1OC(O)[C@H](O)[C@@H](O)[C@@H]1O", "note": "(stereo partly drawn) [G6P, glucose-6-phosphate]", "values": [{"measurement": "activity at 1000 µM", "setting": "[2]", "value": "~200", "unit": "%"}]}
{"molecule": "B1", "values": [{"measurement": "Km", "setting": "purified protein [3]", "value": "1530 ± 70", "unit": "µM"}, {"measurement": "kcat", "setting": "purified protein [3]", "value": "253 ± 11", "unit": "s⁻¹"}, {"measurement": "kcat/Km", "setting": "purified protein [3]", "value": "166000 ± 3000", "unit": "M⁻¹ s⁻¹"}, {"measurement": "Km", "setting": "purified protein [4]", "value": "52.7 ± 7.6", "unit": "µM"}, {"measurement": "kcat", "setting": "purified protein [4]", "value": "251 ± 6", "unit": "s⁻¹"}, {"measurement": "kcat/Km", "setting": "purified protein [4]", "value": "4.84e+06 ± 733000", "unit": "M⁻¹ s⁻¹"}]}
